Measured values published in US9598497B2, “RSPO3 binding agents and uses thereof” (OncoMed Pharmaceuticals, Inc., priority 2012, dated 2017).
One block for each molecule: values may come before it.

Tests used:
[1] = test system: gene sets characteristic of normal stem cells or cancer stem cells; experiment: Microarray gene set enrichment analysis of treated OMP-LU102 tumors; type: in vivo, NOD-SCID mice; details: RNA from OMP-LU102 tumors after treatment, FIG. 11B
Method: RNA was prepared from tumors from each of the four experimental groups following the treatment. Gene expression was characterized by microarray analysis.

human LGR5 = target: T1, human LGR5 (Homo sapiens, UniProt O75473); experiment: FACS binding of RSPO-Fc fusion proteins to LGR5 expressed on HEK-293 cells; details: 10 μg/ml Fc fusion protein, FIG. 2
T1 construct: ligating amino acids 22-564 of human LGR5 to an N-terminal FLAG tag; expressed in transfected cells; host or cells: HEK-293
T1 sequence (O75473 22-564): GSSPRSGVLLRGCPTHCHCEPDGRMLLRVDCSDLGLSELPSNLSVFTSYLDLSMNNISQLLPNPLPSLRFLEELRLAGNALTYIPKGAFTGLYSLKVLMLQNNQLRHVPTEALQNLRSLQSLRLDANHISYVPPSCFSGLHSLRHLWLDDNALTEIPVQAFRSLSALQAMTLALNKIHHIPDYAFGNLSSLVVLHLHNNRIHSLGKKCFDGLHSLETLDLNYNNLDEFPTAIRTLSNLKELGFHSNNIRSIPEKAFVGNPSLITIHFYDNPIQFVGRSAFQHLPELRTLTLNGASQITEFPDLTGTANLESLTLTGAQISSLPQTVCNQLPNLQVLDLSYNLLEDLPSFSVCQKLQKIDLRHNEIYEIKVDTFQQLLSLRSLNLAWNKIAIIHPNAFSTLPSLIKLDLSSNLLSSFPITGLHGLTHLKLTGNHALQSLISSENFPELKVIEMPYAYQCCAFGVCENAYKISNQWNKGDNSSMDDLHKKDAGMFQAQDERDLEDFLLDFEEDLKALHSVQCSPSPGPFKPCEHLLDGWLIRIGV
Source text: A cell surface LGR5 protein was generated by ligating amino acids 22-564 of human LGR5 to an N-terminal FLAG tag and to the transmembrane domain of CD4 and a C-terminal GFP protein tag using standard recombinant DNA techniques (FLAG-LGR5-CD4TM-GFP). RSPO-Fc constructs were generated using standard recombinant DNA techniques. Specifically, full-length human RSPO1, RSPO2, RSPO3 and RSPO4 were ligated in-frame to a human Fc region and the recombinant RSPO-Fc proteins were expressed in insect cells using baculovirus. The fusion proteins were purified from the insect medium using protein A chromatography.
HEK-293 cells were transiently transfected with the FLAG-LGR5-CD4TM-GFP construct. After 48 hours, transfected cells were suspended in ice cold PBS containing 2% FBS and heparin and incubated on ice in the presence of 10 μg/ml RSPO1-Fc, RSPO2-Fc, RSPO3-Fc, RSPO4-Fc, or FZD8-Fc fusion proteins for 15 minutes. A second incubation with 100 μl PE-conjugated anti-human Fc secondary antibody was performed to detect cells bound by the Fc fusion proteins. Cells were incubated with an anti-FLAG antibody (Sigma-Aldrich, St. Louis, Mo.) as a positive control and with an anti-PE antibody as a negative control. The cells were analyzed on a FACSCalibur instrument (BD Biosciences, San Jose, Calif.) and the data was processed using FlowJo software.

[2] = test system: RSPO3-induced β-catenin signaling; experiment: TOPflash 6xTCF-luciferase reporter assay in HEK-293 cells with WNT3a and RSPO3; type: cell-based, human
Method: HEK-293 cells were transfected with a 6×TCF-luciferase reporter vector (TOPflash, Millipore, Billerica, Mass.). After 24-48 hrs, the transfected HEK-293 cells were incubated with a combination of WNT3a (5 ng/ml) and human RSPO3 (10 ng/ml, R&D BioSystems, Minneapolis, Minn.) in the presence of anti-RSPO3 antibodies 131R002 and 131R003. Antibodies 131R002 and 131R003 were added to the cells in 4-fold serial dilutions from 20 μg/ml to 0.02 μg/ml. As controls, cells were incubated with a combination of WNT3a and RSPO3, WNT3a only, RSPO3 only, or with no addition. The cells were incubated for 16 hours and luciferase activity was measured using Steady-Glo® Luciferase Assay System according to the manufacturer's instructions (Promega, Madison, Wis.).
HEK-293 cells were transfected with a 6×TCF-luciferase reporter vector (TOPflash, Millipore, Billerica, Mass.). After 24-48 hrs, the transfected HEK-293 cells were incubated with a combination of WNT3a and human RSPO3 in the presence of anti-RSPO3 antibodies 131R003, 131R003 CDR1 variant and 131R003 CDR3 variant. 131R003, 131R003 CDR1 variant, and 131R003 CDR3 variant were added to the cells in 5-fold serial dilutions from 20 μg/ml to 0.006 μg/ml. As controls, cells were incubated with a combination of WNT3a and RSPO3, WNT3a only, RSPO3 only, a control antibody, or with no addition. The cells were incubated for 16 hours and luciferase activity was measured using Steady-Glo® Luciferase Assay System according to the manufacturer's instructions (Promega, Madison, Wis.).
HEK-293 cells were transfected with a 6×TCF-luciferase reporter vector (TOPflash, Millipore, Billerica, Mass.). After 24-48 hrs, the transfected HEK-293 cells were incubated with a combination of WNT3a conditioned medium (5 ng/ml) and human RSPO3 (10 ng/ml, R&D BioSystems) in the presence of anti-RSPO3 antibodies 131R002, 131R006B, or 131R007. Antibodies 131R002, 131R006 or 131R007 were added to the cells in 5-fold serial dilutions from 20 μg/ml to 0.0064 μg/ml. As controls, cells were incubated with WNT3a conditioned medium alone, a combination of WNT3a conditioned medium and human RSPO3, or with no addition to cells. The cells were incubated for 16 hours and luciferase activity was measured using Steady-Glo® Luciferase Assay System according to the manufacturer's instructions (Promega, Madison, Wis.).
HEK-293 cells were transfected with a 6×TCF-luciferase reporter vector (TOPflash, Millipore, Billerica, Mass.). […] The cells were incubated for 16 hours and luciferase activity was measured using Steady-Glo® Luciferase Assay System according to the manufacturer's instructions (Promega, Madison, Wis.).

binding to LGR5 expressed on the surface of HEK-293 cells (human LGR5): bound to LGR5
B3: RSPO2: full-length human RSPO2 ligated in-frame to a human Fc region (protein)
chain: QGNRWRRSKRASYVSNPICKGCLSCSKDNGCSRCQQKLFFFLRREGMRQYGECLHSCPSGYYGHRAPDMNRCARCRIENCDSCFSKDFCTKCKVGFYLHRGRCFDECPDGFAPLEETMECVEGCEVGHWSEWGTCSRNNRTCGFKWGLETRTRQIVKKPVKDTIPCPTIAESRRCKMTMRHCPGGKRTPKAKEKRNKKKKRKLIERAQEQHSVFLATDRANQ
modifications: left off: a dimerising Fc or GST
notes: full-length human RSPO2 ligated in-frame to a human Fc region

binding to LGR5 expressed on the surface of HEK-293 cells (human LGR5): bound to LGR5
B5: RSPO3: full-length human RSPO3 ligated in-frame to a human Fc region (protein)
chain: QNASRGRRQRRMHPNVSQGCQGGCATCSDYNGCLSCKPRLFFALERIGMKQIGVCLSSCPSGYYGTRYPDINKCTKCKADCDTCFNKNFCTKCKSGFYLHLGKCLDNCPEGLEANNHTMECVSIVHCEVSEWNPWSPCTKKGKTCGFKRGTETRVREIIQHPSAKGNLCPPTNETRKCTVQRKKCQKGERGKKGRERKRKKPNKGESKEAIPDSKSLESSKEIPEQRENKQQQKKRKVQDKQKSVSVSTVH

The next lines start with the molecule.

Molecule: N.N.O=C([O-])C1(C(=O)[O-])CCC1.[Pt+2] [carboplatin, reference compound]
expression of gene sets characteristic of normal stem cells or cancer stem cells [1]: did not have this effect on gene expression

B1: RSPO1: full-length human RSPO1 ligated in-frame to a human Fc region (protein)
chain: SRGIKGKRQRRISAEGSQACAKGCELCSEVNGCLKCSPKLFILLERNDIRQVGVCLPSCPPGYFDARNPDMNKCIKCKIEHCEACFSHNFCTKCKEGLYLHKGRCYPACPEGSSAANGTMECSSPAQCEMSEWSPWGPCSKKQQLCGFRRGSEERTRRVLHAPVGDHAACSDTKETRRCTVRRVPCPEGQKRRKGGQGRRENANRNLARKESKEAGAGSRRRKGQQQQQQQGTVGPLTSAGPA
modifications: left off: a dimerising Fc or GST
notes: full-length human RSPO1 ligated in-frame to a human Fc region
binding to LGR5 expressed on the surface of HEK-293 cells (human LGR5): bound to LGR5

B2: 131R003: anti-RSPO3 antibody from a mammalian cell antibody library; heavy chain variable region SEQ ID NO:16, light chain variable region SEQ ID NO:17 (antibody, V domains shown)
VH: QVQLKQSGPELVKPGASVKISCKASGYTFTDYSIHWVKQNHGKSLDWIGYIYPSNGDSGYNQKFKNRATLTVDTSYSTAYLEVRRLTFEDSAVYYCATYFANYFDYWGQGTTLTVSSAST
VL: DIVLTQSPASLAVSLGQRATISCKASQSVDYDGDSYMNWYQQKPGQPPKLLIYAASNLESGIPARFSGSGSGTDFTLNIHPVEEEDAATYYCQQSNEDPLTFGAGTKLELKR
modifications: 131R003 Heavy chain variable region; 131R002/131R003 Light chain variable region
RSPO3-induced β-catenin signaling ([2]; WNT3a 5 ng/ml + RSPO3 10 ng/ml, antibody 20 to 0.02 μg/ml, FIG. 3): reduced RSPO3-induced β-catenin signaling in a dose-dependent manner

B4: h131R010: humanized 131R003 variant, IgG1; heavy chain variable region SEQ ID NO:44, light chain variable region SEQ ID NO:86; ATCC PTA-120420 and PTA-120421 (antibody, V domains shown)
VH: QVQLVQSGAEVKKPGASVKVSCKASGYTFTDYSIHWVRQAPGQGLEWIGYIYPSNGDSGYNQKFKNRVTMTRDTSTSTAYMELSRLRSEDTAVYYCATYFANNFDYWGQGTTLTVSS
VL: DIQMTQSPSSLSASVGDRVTITCKASQSVDYDGDSYMNWYQQKPGKAPKLLIYAASNLESGVPSRFSGSGSGTDFTLTISPVQAEDFATYYCQQSNEDPLTFGAGTKLELKR
modifications: Humanized 131R005/131R007/131R008/ 131R010/131R011 Heavy chain variable region; Humanized 131R010/131R011 Light chain variable region
notes: humanized 131R003 variant, IgG1; ATCC PTA-120420 and PTA-120421
WNT3a/RSPO3-induced β-catenin signaling ([2]; WNT3a conditioned medium 5 ng/ml + human RSPO3 2 ng/ml, antibody 20 to 0.0064 μg/ml, FIG. 13): reduced WNT3a/RSPO3-induced β-catenin signaling in a dose-dependent manner and to a similar extent as h131R007
